Legend:
[1] = biological target: pyruvate kinase M2 (PKM2), wild type, purified recombinant human (human) (UniProt P14618); assay: native MS; time course over 20 min, 10 µM PKM2 with 5 µM FBP and 400 µM Phe; ratio of the tetramer 32+ peak to the dimer 22+ peak, two-state sigmoidal model; dimers and monomers to tetramer
[2] = biological target: pyruvate kinase M2 (PKM2), wild type, purified recombinant human (human) (UniProt P14618); assay: native MS; nano-ESI, 10 µM PKM2 in 200 mM ammonium acetate pH 6.8, no FBP added (PKM2^apo*, <25% co-purified FBP); also with 300 µM Phe alone (fewer tetramers, more dimers)

pyruvate kinase M2 (PKM2), wild type, purified recombinant human, P14618-1 1-531 (enzyme; other documents disagree on this pair), sequence (P14618 whole entry): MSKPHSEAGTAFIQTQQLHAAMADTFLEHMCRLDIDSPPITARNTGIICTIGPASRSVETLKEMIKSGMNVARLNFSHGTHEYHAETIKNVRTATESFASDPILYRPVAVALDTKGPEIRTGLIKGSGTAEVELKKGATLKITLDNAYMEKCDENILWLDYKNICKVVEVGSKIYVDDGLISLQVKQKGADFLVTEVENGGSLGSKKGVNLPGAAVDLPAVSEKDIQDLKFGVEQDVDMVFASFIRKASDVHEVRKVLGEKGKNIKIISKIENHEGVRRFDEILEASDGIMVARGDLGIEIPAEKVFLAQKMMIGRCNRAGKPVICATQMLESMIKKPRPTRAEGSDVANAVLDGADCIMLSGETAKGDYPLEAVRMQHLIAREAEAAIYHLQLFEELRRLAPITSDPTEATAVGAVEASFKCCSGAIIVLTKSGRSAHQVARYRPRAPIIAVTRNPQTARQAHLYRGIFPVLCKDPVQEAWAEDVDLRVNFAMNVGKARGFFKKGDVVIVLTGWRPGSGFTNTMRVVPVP

ktet (kinetics of tetramerisation with half-stoichiometric FBP and Phe) [1]: 812 s | stoichiometry N [2]: 2
Substance: pyruvate kinase M2 (PKM2), wild type, purified recombinant human, P14618-1 1-531 (enzyme; other documents disagree on this pair)
